Residue numbers refer to the chain shown, from its start. Names and notes keep the numbering of the source.
B1: Ad3-S5/Kn (ligand, human adenovirus serotype 3, UniProt P04501 60-319, looked up)
chain: SLQLKVGSGLTVDTTDGSLEENIKVNTPLTKSNHSINLPIGNGLQIEQNKLCSKLGNGLTFDSSNSIALKNNTLWTGPKPEANCIIEYGKQNPDSKLTLILVKNGGIVNGYVTLMGASDYVNTLFKNKNVSINVELYFDATGHILPDSSSLKTDLELKYKQTADFSARGFMPSTTAYPFVLPNAGTHNENYIFGQCYYKASDGALFPLEVTVMLNKRLPDSRTSYVMTFLWSLNAGLAPETTQATLITSPFTFSYIREDD
notes: domain: fiber knob with shaft motifs (S5)
B2: Ad3-S2/Kn (ligand, human adenovirus serotype 3, UniProt P04501 108-319, looked up)
chain: NKLCSKLGNGLTFDSSNSIALKNNTLWTGPKPEANCIIEYGKQNPDSKLTLILVKNGGIVNGYVTLMGASDYVNTLFKNKNVSINVELYFDATGHILPDSSSLKTDLELKYKQTADFSARGFMPSTTAYPFVLPNAGTHNENYIFGQCYYKASDGALFPLEVTVMLNKRLPDSRTSYVMTFLWSLNAGLAPETTQATLITSPFTFSYIREDD
notes: domain: fiber knob with shaft motifs (S2)
B3: Ad3-S4/Kn (ligand, human adenovirus serotype 3, UniProt P04501 77-319, looked up)
chain: SLEENIKVNTPLTKSNHSINLPIGNGLQIEQNKLCSKLGNGLTFDSSNSIALKNNTLWTGPKPEANCIIEYGKQNPDSKLTLILVKNGGIVNGYVTLMGASDYVNTLFKNKNVSINVELYFDATGHILPDSSSLKTDLELKYKQTADFSARGFMPSTTAYPFVLPNAGTHNENYIFGQCYYKASDGALFPLEVTVMLNKRLPDSRTSYVMTFLWSLNAGLAPETTQATLITSPFTFSYIREDD
notes: domain: fiber knob with shaft motifs (S4)
B4: dimeric Ad3 fiber knob mutant D261N (ligand)
chain: MKVSALKEKVSALKEKVSALKEKVSALKEKVSALKEGSGGGSGGGSGGGSNSIALKNNTLWTGPKPEANCIIEYGKQNPDSKLTLILVKNGGIVNGYVTLMGASDYVNTLFKNKNVSINVELYFDATGHILPDSSSLKTDLELKYKQTADFSARGFMPSTTAYPFVLPNAGTHNENYIFGQCYYKASNGALFPLEVTVMLNKRLPDSRTSYVMTFLWSLNAGLAPETTQATLITSPFTFSYIREDD
B5: dimeric Ad3 fiber knob mutant N186D (ligand)
chain: B4 chain with N113D, N188D
notes: Self-dimerizing form (JO-1 format)
B6: dimeric Ad3 fiber knob mutant L296R (ligand)
chain: B4 chain with N188D, L223R
notes: JO-1 format
B7: dimeric Ad3 fiber knob mutant D261N, L296R (ligand)
chain: B4 chain with L223R
notes: JO-1 format; Positions count on the full Ad3 fiber; also called combination of D261N and L296R
B8: dimeric Ad3 fiber knob mutant S190P (ligand)
chain: B4 chain with S117P, N188D
notes: JO-1 format; also called 5190P
B9: dimeric Ad3 fiber knob mutant F265L (ligand)
chain: B4 chain with N188D, F192L
notes: JO-1 format
B10: dimeric Ad3 fiber knob mutant N186D, D261N (ligand)
chain: B4 chain with N113D
notes: JO-1 format; Positions count on the full Ad3 fiber; also called combination of N186D and D261N
B11: dimeric Ad3 fiber knob mutant V189G (ligand)
chain: B4 chain with V116G, N188D
notes: JO-1 format
B12: dimeric Ad3 fiber knob mutant E299V (ligand)
chain: B4 chain with N188D, E226V
notes: JO-1 format
B13: Ad3-S3/Kn (ligand, human adenovirus serotype 3, UniProt P04501 94-319, looked up)
chain: SINLPIGNGLQIEQNKLCSKLGNGLTFDSSNSIALKNNTLWTGPKPEANCIIEYGKQNPDSKLTLILVKNGGIVNGYVTLMGASDYVNTLFKNKNVSINVELYFDATGHILPDSSSLKTDLELKYKQTADFSARGFMPSTTAYPFVLPNAGTHNENYIFGQCYYKASDGALFPLEVTVMLNKRLPDSRTSYVMTFLWSLNAGLAPETTQATLITSPFTFSYIREDD
notes: domain: fiber knob with shaft motifs (S3)

Key:
[1] = target: Recombinant human DSG2 protein (desmoglein 2), soluble (human) (UniProt Q14126); assay: method not named at this place; presumably the SPR of FIG. 7 (noDD forms)
[2] = target: Desmoglein 2 (DSG2) on cells (human) (UniProt Q14126); assay: competition: attachment of 3H-labelled Ad3 virus (competitor) to HeLa cells after pre-incubation with dimeric knob; scintillation counting
[3] = target: Desmoglein 2 (DSG2) on cells (human) (UniProt Q14126); assay: cell-based or functional assay
[4] = target: T1, soluble CD46 (UniProt P15529 35-343, limits assumed); assay: Western blot probed with soluble CD46 and anti-CD46 mAb
T1 construct: also called sCD46
T1 sequence (looked up): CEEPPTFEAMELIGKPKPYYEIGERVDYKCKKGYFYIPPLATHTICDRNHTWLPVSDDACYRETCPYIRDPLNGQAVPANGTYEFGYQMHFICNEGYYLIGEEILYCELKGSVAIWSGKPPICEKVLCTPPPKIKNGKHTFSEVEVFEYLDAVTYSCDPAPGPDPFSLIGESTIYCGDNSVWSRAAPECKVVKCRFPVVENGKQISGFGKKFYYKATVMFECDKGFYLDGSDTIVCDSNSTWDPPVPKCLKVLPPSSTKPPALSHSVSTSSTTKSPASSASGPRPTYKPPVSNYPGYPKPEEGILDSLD

[5] = target: T2, Desmoglein 2 (DSG2) on cells (human, UniProt Q14126 50-1118); assay: cell-based or functional assay
T2 sequence (looked up): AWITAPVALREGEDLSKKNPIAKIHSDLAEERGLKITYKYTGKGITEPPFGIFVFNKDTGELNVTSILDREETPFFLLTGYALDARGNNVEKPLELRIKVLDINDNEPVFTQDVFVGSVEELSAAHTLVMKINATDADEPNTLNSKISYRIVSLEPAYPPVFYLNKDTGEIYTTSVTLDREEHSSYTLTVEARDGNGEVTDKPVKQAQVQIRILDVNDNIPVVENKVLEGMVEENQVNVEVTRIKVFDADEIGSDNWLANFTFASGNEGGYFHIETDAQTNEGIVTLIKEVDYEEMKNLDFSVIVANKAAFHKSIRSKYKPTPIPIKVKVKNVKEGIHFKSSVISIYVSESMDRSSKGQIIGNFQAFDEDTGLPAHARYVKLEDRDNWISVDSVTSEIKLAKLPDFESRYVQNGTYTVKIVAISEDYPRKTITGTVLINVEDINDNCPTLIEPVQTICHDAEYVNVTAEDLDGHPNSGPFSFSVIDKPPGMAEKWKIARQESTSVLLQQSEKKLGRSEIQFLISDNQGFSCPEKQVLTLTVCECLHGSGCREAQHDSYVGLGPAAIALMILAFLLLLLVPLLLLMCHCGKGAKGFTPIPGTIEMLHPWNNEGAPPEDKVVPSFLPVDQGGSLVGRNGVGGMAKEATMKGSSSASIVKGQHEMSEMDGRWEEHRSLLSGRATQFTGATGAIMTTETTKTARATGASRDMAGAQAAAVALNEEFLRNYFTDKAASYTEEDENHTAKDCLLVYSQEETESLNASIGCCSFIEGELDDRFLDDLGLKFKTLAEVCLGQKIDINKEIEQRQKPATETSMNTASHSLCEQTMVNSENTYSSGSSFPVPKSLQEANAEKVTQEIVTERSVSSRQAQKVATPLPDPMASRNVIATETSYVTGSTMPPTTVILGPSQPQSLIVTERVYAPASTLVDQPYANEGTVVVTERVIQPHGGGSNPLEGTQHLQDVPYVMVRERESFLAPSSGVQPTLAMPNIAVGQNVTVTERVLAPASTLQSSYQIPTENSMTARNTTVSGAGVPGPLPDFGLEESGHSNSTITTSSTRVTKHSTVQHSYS

[6] = target: T2, Desmoglein 2 (DSG2) on cells; assay: competition: attachment of 3H-labelled Ad3 virus (competitor) to HeLa cells after pre-incubation with dimeric knob; scintillation counting
[7] = target: Recombinant human DSG2 protein (desmoglein 2), soluble (human) (UniProt Q14126); assay: Western blot of purified dimeric knob (trimer band) probed with soluble recombinant DSG2, anti-DSG2 mAb and anti-mouse IgG-HRP; bands quantified

| Molecule | Inhibition of infection in the presence of dimeric knob (JO-1 = 100%) [5] | Inhibition of attachment in the presence of dimeric knob (JO-1 = 100%) [6] | other results |
| --- | --- | --- | --- |
| JO-4 (dimeric affinity-enhanced Ad3 fiber knob mutant Y250F) (ligand) |  |  | Kd [1]: 0.0114 µM |
| dimeric Ad3 fiber knob mutant N186D, D261N, L296R (ligand) |  |  | Inhibition of attachment in the presence of dimeric knob (JO-1 = 100%) (% (JO-1 = 100%)) [2]: 18.5; Inhibition of infection in the presence of dimeric knob (JO-1 = 100%) (% (JO-1 = 100%)) [3]: 0 |
| B1 |  |  | binding result [4]: no binding |
| B2 |  |  | binding result [4]: no binding |
| B3 |  |  | binding result [4]: no binding |
| B4 |  |  | Inhibition of attachment in the presence of dimeric knob (JO-1 = 100%) (% (JO-1 = 100%)) [2]: 45; Inhibition of infection in the presence of dimeric knob (JO-1 = 100%) (% (JO-1 = 100%)) [3]: 5.3 |
| B5 | 32.7 % (JO-1 = 100%) | 56.5 % (JO-1 = 100%) |  |
| B6 | 5.1 % (JO-1 = 100%) | 73.7 % (JO-1 = 100%) |  |
| B7 | 1.5 % (JO-1 = 100%) | 20.1 % (JO-1 = 100%) | Western blot Residual DSG2 binding (wtAd3 knob = 100%) [7]: 7% |
| B8 | 30.9 % (JO-1 = 100%) | 73.4 % (JO-1 = 100%) |  |
| B9 | 17.6 % (JO-1 = 100%) | 55.6 % (JO-1 = 100%) |  |
| B10 | 5.2 % (JO-1 = 100%) | 23.5 % (JO-1 = 100%) | Western blot Residual DSG2 binding (wtAd3 knob = 100%) [7]: 7% |
| B11 | 54 % (JO-1 = 100%) | 81 % (JO-1 = 100%) |  |
| B12 | 50.7 % (JO-1 = 100%) | 97.3 % (JO-1 = 100%) |  |
| B13 |  |  | binding result [4]: no binding |
